From patent US20250076311A1 (Chugai, published 2025)

How the values were obtained:
[1] = target: T1, cynomolgus monkey FcγRIIIaS extracellular domain with C-terminal His-tag (cynomolgus monkey, UniProt A3RFZ7 21-206 (rhesus entry)); experiment: SPR Biacore, antibody captured, FcgR analyte
T1 construct: also called cyno FcgRIIIaS; cynoFcγRIIIaS; not shown: His-tag added to C-terminus

[2] = target: T2, human FcγRIIb extracellular domain with C-terminal His-tag (human, UniProt P31994 43-217); experiment: SPR Biacore, antibody captured, FcgR analyte
T2 construct: also called human FcgRIIb; not shown: His-tag added to C-terminus
T2 sequence: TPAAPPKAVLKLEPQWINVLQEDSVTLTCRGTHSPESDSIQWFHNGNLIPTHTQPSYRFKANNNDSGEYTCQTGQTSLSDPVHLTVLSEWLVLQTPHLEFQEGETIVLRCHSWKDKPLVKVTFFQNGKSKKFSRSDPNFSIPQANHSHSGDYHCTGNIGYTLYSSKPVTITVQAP

[3] = target: T3, cynomolgus monkey FcγRIIa3 extracellular domain with C-terminal His-tag (cynomolgus monkey); experiment: SPR Biacore, antibody captured, FcgR analyte
T3 construct: also called cyno FcgRIIa3; cynoFcγRIIa3; not shown: His-tag added to C-terminus
T3 chain: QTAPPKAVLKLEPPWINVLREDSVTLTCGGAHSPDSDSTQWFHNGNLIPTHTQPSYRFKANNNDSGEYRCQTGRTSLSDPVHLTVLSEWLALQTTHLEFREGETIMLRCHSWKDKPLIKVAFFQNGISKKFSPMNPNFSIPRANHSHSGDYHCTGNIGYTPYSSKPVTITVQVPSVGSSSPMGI

[4] = target: T4, human FcγRIIaH extracellular domain with C-terminal His-tag (human, UniProt P12318 34-217); experiment: SPR Biacore, antibody captured, FcgR analyte
T4 construct: also called human FcgRIIaH; FcγRIIa (type H); not shown: His-tag added to C-terminus
T4 sequence: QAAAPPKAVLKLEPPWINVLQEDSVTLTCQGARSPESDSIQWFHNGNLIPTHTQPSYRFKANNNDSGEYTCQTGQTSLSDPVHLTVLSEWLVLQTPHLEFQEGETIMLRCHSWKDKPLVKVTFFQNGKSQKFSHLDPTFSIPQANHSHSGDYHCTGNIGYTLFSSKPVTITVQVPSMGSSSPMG

[5] = target: T5, human FcγRIIaR extracellular domain with C-terminal His-tag (human, UniProt P12318 34-217); experiment: SPR Biacore, antibody captured, FcgR analyte
T5 construct: also called human FcgRIIaR; FcγRIIa (type R); not shown: His-tag added to C-terminus
T5 chain: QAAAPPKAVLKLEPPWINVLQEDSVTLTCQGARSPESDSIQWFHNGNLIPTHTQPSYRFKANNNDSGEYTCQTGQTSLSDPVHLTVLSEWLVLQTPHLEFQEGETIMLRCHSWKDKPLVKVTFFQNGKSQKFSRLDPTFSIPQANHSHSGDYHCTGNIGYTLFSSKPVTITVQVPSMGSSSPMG

[6] = target: T6, cynomolgus monkey FcγRIIb extracellular domain with C-terminal His-tag (cynomolgus monkey); experiment: SPR; KD of SG1 / KD of variant
T6 construct: also called cyno FcγRIIb; cynoFcγRIIb
T6 chain: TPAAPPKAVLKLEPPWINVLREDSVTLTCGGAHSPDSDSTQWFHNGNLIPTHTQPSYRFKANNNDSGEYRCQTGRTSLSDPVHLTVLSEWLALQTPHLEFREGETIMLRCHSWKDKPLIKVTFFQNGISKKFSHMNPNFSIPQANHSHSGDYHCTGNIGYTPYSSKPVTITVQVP

[7] = target: T7, cynomolgus monkey FcγRIIIaS extracellular domain with C-terminal His-tag (cynomolgus monkey, UniProt Q8SPW2 21-206 at identity 1.00)); experiment: SPR; KD of SG1 / KD of variant
T7 construct: also called cyno FcγRIIIaS; FcgRIIIaS
T7 chain: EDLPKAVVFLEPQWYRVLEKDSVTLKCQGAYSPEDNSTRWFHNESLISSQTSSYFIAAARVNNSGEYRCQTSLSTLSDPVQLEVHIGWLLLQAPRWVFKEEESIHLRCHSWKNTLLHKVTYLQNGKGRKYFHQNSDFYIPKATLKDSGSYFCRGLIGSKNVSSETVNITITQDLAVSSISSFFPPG

[8] = target: T8, human FcγRIIaR extracellular domain with C-terminal His-tag (human, UniProt P12318 34-217); experiment: SPR; KD of SG1 / KD of variant
T8 construct: also called human FcγRIIa (type R); FcgRIIaR
T8 chain: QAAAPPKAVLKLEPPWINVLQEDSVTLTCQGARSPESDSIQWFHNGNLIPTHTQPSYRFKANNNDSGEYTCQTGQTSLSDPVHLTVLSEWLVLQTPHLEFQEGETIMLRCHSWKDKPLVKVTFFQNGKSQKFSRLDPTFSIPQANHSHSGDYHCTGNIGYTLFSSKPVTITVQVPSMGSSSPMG

B1: M103205H795-MY289/M103202L889-SK1 (antibody, human IgG1, kappa, name in EU numbering)
heavy: QVTLKESGPVLVKPTETLTLTCTVSGIDLSHDDISWVRQAPGKGLEWVGIISYAGSTYYASWAKGRLTISKDTSKNQVVLTMTNMDPVDTATYYCARGVPAYSHGGDLWGQGTLVTVSSASTKGPSVFPLAPSSKSTSGGTAALGCLVKDYFPEPVTVSWNSGALTSGVHTFPAVLQSSGLYSLSSVVTVPSSSLGTQTYICNVNHKPSNTKVDKKVEPKSCDKTHTCPPCPAPELLNGPSVFLFPPKPKDTLMISRTPEVTCVVVDVSHEDPEVKFNWYVDGVEVHNAKTKPREEQYNSTYRVVSVLTVLHQDWLNGKEYKCKVSNKALPKPIEKTISKAKGQPREPQVYTLPPSREEMTKNQVSLTCLVKGFYPSDIAVEWESNGQPENNYKTTPMVLDSDGSFFLYSKLTVDKSRWQQGNVFSCSVMHEALHNHYTQKSLSLSP
light: DIVMTQSPATLSLSPGERATLSCTSSQSVYHANWLSWFQQKPGQPPKLLIYWASTLAYGVPSRFSGSGSGTDFTLTISSLQPEDAATYYCAGGYGGGRYAFGQGTKVEIKRTVAAPSVFIFPPSDEQLKSGTASVVCLLNNFYPREAKVQWKVDNALQSGNSQESVTEQDSKDSTYSLSSTLTLSKADYEKHKVYACEVTHQGLSSPVTKSFNRGEC
notes: substitutions in EU numbering, introduced into M103205H795-SG1
KD fold (SG1 = 1) [1]: 0.07 fold | KD fold (SG1 = 1) [2]: 1.8 fold | KD fold (SG1 = 1) [3]: 1 fold | KD fold (SG1 = 1) [4]: 0.8 fold | KD fold (SG1 = 1) [5]: 0.3 fold

B2: M103205H795-MY309 (heavy chain) with M103202L889-SK1 (light chain) (antibody, human IgG1, kappa, name in EU numbering)
heavy: QVTLKESGPVLVKPTETLTLTCTVSGIDLSHDDISWVRQAPGKGLEWVGIISYAGSTYYASWAKGRLTISKDTSKNQVVLTMTNMDPVDTATYYCARGVPAYSHGGDLWGQGTLVTVSSASTKGPSVFPLAPSSKSTSGGTAALGCLVKDYFPEPVTVSWNSGALTSGVHTFPAVLQSSGLYSLSSVVTVPSSSLGTQTYICNVNHKPSNTKVDKKVEPKSCDKTHTCPPCPAPELLTGPSVFLFPPKPKDTLMISRTPEVTCVVVDVSEEDPEVKFNWYVDGVEVHNAKTKPREEQYNSTYRVVSVLTVLHQDWLNGKEYKCKVSNKALPKPIEKTISKAKGQPREPQVYTLPPSREEMTKNQVSLTCLVKGFYPSDIAVEWESNGQPENNYKTTPMVLDSDGSFFLYSKLTVDKSRWQQGNVFSCSVMHEALHNHYTQKSLSLSP
light: DIVMTQSPATLSLSPGERATLSCTSSQSVYHANWLSWFQQKPGQPPKLLIYWASTLAYGVPSRFSGSGSGTDFTLTISSLQPEDAATYYCAGGYGGGRYAFGQGTKVEIKRTVAAPSVFIFPPSDEQLKSGTASVVCLLNNFYPREAKVQWKVDNALQSGNSQESVTEQDSKDSTYSLSSTLTLSKADYEKHKVYACEVTHQGLSSPVTKSFNRGEC
notes: Substitutions introduced into M103205H795-SG1; positions in EU numbering
KD fold (SG1 = 1) [6]: 2.5 fold | KD fold (SG1 = 1) [7]: 0.3 fold | KD fold (SG1 = 1) [8]: 4.2 fold
